B1: mAb clone 4H11 (antibody, V domains shown)
VH: EVKLVESGGGLVKPGGSLKLSCAASGFAFSNYDMSWVRQTPEKRLEWVATIRSDDSYTYYPDSVKGRFTISRDNARNTLYLQMSSLRSEDTAFYYCARREGNYAMDYWGQGTSVTVSS
VL: DIQMTQSPASLSVSVGETVTITCRASENIYSYLAWYQQKKGKSPQLLVYAATNLGDGVPTRFSGSGSGTQYSLKINSLQSEDFGSYYCQHFWGNPLTFGAGTKLELKR
notes: Mouse hybridoma mAb
B2: mAb clone 12C3 (antibody, V domains shown)
VH: EVKLVESGGGLVQPGGSLSLSCAASGFTYTDYYMNWVRQPPGKALEWLALIRNKANGYTTEYSASLKGRFTISRDNSQSILYLQMNALRAEDSATYYCVRENINYYFDYWGQGTTLTVSS
VL: DIVLTQSPASLAVSLGQRATISCRASESVEYFGASLMQWYQQKSGQPPKLLIRAATNVESGVPARFSGSGSGTDFSLNIHPVEEDDIAMYFCQQSRKVPWTFGGGTKLEIKR
notes: Mouse hybridoma mAb, fusions 20/21 (PIN628 V regions)

Columns and labels:
Assay in all cases: ELISA
746 = target: T1, 746; set-up: key to grade: 0 = <0.5 OD, 1 = 0.5-1.0 OD, 4 = 1-4 OD
T1 construct: H4-39 L2-8; also called PIN746
Excerpt: (§1) Before specificity screening, all of the clonal immunogen-positive hybridoma supernatants were re-screened on the immunogen, a non-family member Id protein, and KLH, if animals were immunized with Id protein that has been conjugated KLH. As described above, this screen identifies HC-specific clones but not mAbs against the light chain constant region. Clones identified positive to the immunogen and KLH were […]. Those found positive to the immunogen but not to the non-family member Id protein or KLH were tittered on the immunogen. In addition to normalizing for different binding affinities and concentrations, each hybridoma supernatant was titered on the fully human form of the Id protein used as the immunogen(s) for the V regions. The titer or dilution resulting in an ELISA absorbance of 2.5 to 3 OD after 30 min. incubation time was then used. Hybridoma specificity was determined by screening against available Id proteins expressing the same HV and KV or LV as well as different HV, KV and LV. The final ELISA results are expressed as follows: 0 (<0.5 OD), 1 (0.5-1.0 OD), or 4 (1-4 OD). Positive hybridoma supernatants are categorized according to specificity: anti-Id, anti-constant region (HC, KC or LC), or V region (HV, KV, LV family or family member).
(§2) In general, the fully human Id protein or proteins containing the immunogen V regions were coated onto 96-well ELISA plates at 2.5-5 ug/mL in carbonate buffer pH 9.6 and incubated at 4° C. for up to 14 days. On the day of the ELISA, plates were brought to RT and blocked with Tris-Tween-20, pH 7.6 for 15-60 min. at RT. Following a NaCl and Triton X-100 wash, diluted hybridoma cell culture supernatants were incubated overnight at 4° C. Hybridoma supernatant dilutions ranged from 1:2 to 1:25 and were prepared in PBS with 5% BSA. Plates were washed and incubated with HRP-conjugated goat anti-mouse IgG-specific detecting antibody. A chromogenic substrate (TMB) was used to measure the amount of mouse antibody bound to each well. The reaction was stopped at or before 30 minutes with IN H2SO4 and plates were read immediately. Absorbency readings at 450 nm ranging between 0-4 OD and using Molecular Devices plate reader and SOFTMAX PRO software.

1060 = target: T2, 1060; set-up: key to grade: 0 = <0.5 OD, 1 = 0.5-1.0 OD, 4 = 1-4 OD
T2 construct: H4-39 L2-23; also called PIN1060
Excerpt: as §1, §2

712 = target: T3, 712; set-up: key: 0 = <0.5 OD, 1 = 0.5-1.0 OD, 4 = 1-4 OD
T3 construct: H3-23 K4-1; also called PIN712
Excerpt: as §1, §2

591 = target: T4, 591; set-up: key: 0 = <0.5 OD, 1 = 0.5-1.0 OD, 4 = 1-4 OD
T4 construct: H3-23 K4-1; also called PIN591
Excerpt: as §1, §2

529 = target: T5, 529; set-up: key: 0 = <0.5 OD, 1 = 0.5-1.0 OD, 4 = 1-4 OD
T5 construct: H3-48 K4-1; also called PIN529
Excerpt: as §1, §2

631 = target: T6, 631; set-up: key: 0 = <0.5 OD, 1 = 0.5-1.0 OD, 4 = 1-4 OD
T6 construct: H4-34 K4-1; also called PIN631
Excerpt: as §1, §2

659 = target: T7, 659; set-up: key: 0 = <0.5 OD, 1 = 0.5-1.0 OD, 4 = 1-4 OD
T7 construct: H3-21 K4-1; also called PIN659
Excerpt: as §1, §2

170 = target: T8, 170; set-up: key: 0 = <0.5 OD, 1 = 0.5-1.0 OD, 4 = 1-4 OD
T8 construct: H4-34 K4-1; also called PIN170
Excerpt: as §1, §2

192 = target: T9, 192; set-up: key: 0 = <0.5 OD, 1 = 0.5-1.0 OD, 4 = 1-4 OD
T9 construct: H5-51 K4-1; also called PIN192
Excerpt: as §1, §2

204 = target: T10, 204; set-up: key: 0 = <0.5 OD, 1 = 0.5-1.0 OD, 4 = 1-4 OD
T10 construct: H3-15 K4-1; also called PIN204
Excerpt: as §1, §2

518 = target: T11, 518; set-up: key: 0 = <0.5 OD, 1 = 0.5-1.0 OD, 4 = 1-4 OD
T11 construct: H4-59 K4-1; also called PIN518
Excerpt: as §1, §2

566 = target: T12, 566; set-up: key: 0 = <0.5 OD, 1 = 0.5-1.0 OD, 4 = 1-4 OD
T12 construct: H3-73 K4-1; also called PIN566
Excerpt: as §1, §2

839 = target: T13, 839; set-up: key: 0 = <0.5 OD, 1 = 0.5-1.0 OD, 4 = 1-4 OD
T13 construct: H3-23 K4-1; also called PIN839
Excerpt: as §1, §2

950 = target: T14, 950; set-up: key: 0 = <0.5 OD, 1 = 0.5-1.0 OD, 4 = 1-4 OD
T14 construct: H4-59 K4-1; also called PIN950
Excerpt: as §1, §2

953 = target: T15, 953; set-up: key: 0 = <0.5 OD, 1 = 0.5-1.0 OD, 4 = 1-4 OD
T15 construct: H5-51 K4-1; also called PIN953
Excerpt: as §1, §2

987 = target: T16, 987; set-up: key: 0 = <0.5 OD, 1 = 0.5-1.0 OD, 4 = 1-4 OD
T16 construct: H3-23 K4-1; also called PIN987
Excerpt: as §1, §2

1088 = target: T17, 1088; set-up: key: 0 = <0.5 OD, 1 = 0.5-1.0 OD, 4 = 1-4 OD
T17 construct: H2-5 K4-1; also called PIN1088
Excerpt: as §1, §2

1154 = target: T18, 1154; set-up: key: 0 = <0.5 OD, 1 = 0.5-1.0 OD, 4 = 1-4 OD
T18 construct: H4-61 K4-1; also called PIN1154
Excerpt: as §1, §2

913 = target: T19, 913; set-up: key: 0 = <0.5 OD, 1 = 0.5-1.0 OD, 4 = 1-4 OD
T19 construct: fully human Id protein; also called PIN913
Excerpt: as §1, §2

[1] = target: T20, PIN185 fully human Id protein (human); set-up: key: 0 = <0.5 OD, 1 = 0.5-1.0 OD, 4 = 1-4 OD
T20 construct: Patient-derived idiotype immunoglobulin used as control antigen in SPR
Excerpt: as §1, §2

T19 sequence (heavy, as listed by the source): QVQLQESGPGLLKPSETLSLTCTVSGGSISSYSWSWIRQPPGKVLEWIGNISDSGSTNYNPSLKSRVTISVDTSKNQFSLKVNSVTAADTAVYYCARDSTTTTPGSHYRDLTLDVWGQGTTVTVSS

Binder	grade 746	grade 1060	grade 712	grade 591	grade 529	grade 631	grade 659	grade 170	grade 192	grade 204	grade 518	grade 566	grade 839	grade 950	grade 953	grade 987	grade 1088	grade 1154	grade 913	grade [1]
B1	1	4																		
B2			4	4	4	4	4	4	4	4	4	4	4	4	4	4	4	4	4	4

Reference: patent US20070134249A1 (GENITOPE, published 2007)
